Assays:
[1] = biological target: thiopeptolide Ac-Pro-Leu-Gly-thioester-Leu-Leu-Gly-OEt (not provided)

“human stromelysin catalytic domain protein (enzyme)” was tested, and the hydrolysis of the thiopeptolide substrate (Km, kcat) [1] was 270 µM and the Proteoglycan Degradation (µg of Chondroitin Sulfate/h) (µg of Chondroitin Sulfate/h) (proteoglycan) was 8.

Source: US6284513
